Experimental data as given in US9802942B2, “Substituted 4-methyl-pyrrolo[1,2-A]pyrimidine-8-carboxamide compounds and uses thereof for modulating glucocerebrosidase activity” (Northwestern University, priority 2015, dated 2017).

What was measured:
[1] = target: T1, covalent activated GCase (Homo sapiens, UniProt P04062); assay: Saposin C activation assay with 4MU-Glc substrate, probe 4 pre-activated enzyme; assay type: biochemical; settings: pH 4.7
T1 construct: purchased Shire Human Genetic Therapies, Inc. Vpriv
T1 sequence (P04062 40-536): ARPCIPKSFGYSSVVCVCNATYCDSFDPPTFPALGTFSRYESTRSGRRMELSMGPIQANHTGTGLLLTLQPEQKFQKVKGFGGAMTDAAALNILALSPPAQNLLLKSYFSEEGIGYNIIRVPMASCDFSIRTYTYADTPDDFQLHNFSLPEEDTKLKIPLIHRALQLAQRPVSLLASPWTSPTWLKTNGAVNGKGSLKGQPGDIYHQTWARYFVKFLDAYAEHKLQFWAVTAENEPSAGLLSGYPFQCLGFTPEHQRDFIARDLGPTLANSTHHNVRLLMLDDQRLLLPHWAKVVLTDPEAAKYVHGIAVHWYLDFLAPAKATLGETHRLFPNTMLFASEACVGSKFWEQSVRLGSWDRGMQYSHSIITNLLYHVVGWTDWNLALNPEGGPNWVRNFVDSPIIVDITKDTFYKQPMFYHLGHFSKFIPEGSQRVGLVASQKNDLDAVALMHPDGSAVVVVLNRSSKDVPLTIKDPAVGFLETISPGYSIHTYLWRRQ
Method: (§1) Saposin C (0.5 μL/well) was added to a black 96-well plate (the final titration was 1.72 nM to 1.76 μM, 12 concentrations). The compound 4 activated enzyme and wt. enzyme (33.5 μL/well, 7.5 nM final concentration) in assay buffer (50 mM Citric acid, 176 mM K2HPO4, 0.01% tween-20, 0.01% (g/mL) phosphatidylserine, pH 4.7) was added to the wells, respectively. After 5 min of incubation at room temperature, the enzyme reaction was initiated by the addition of 33 μL/well 4MU-Glc substrate. Final concentrations of the 4MU-Glc substrate was 1.5 mM. The reaction was terminated by the addition of 33 μL/well stop solution (1 M NaOH and 1 M glycine mixture, pH 10) after 30 min of incubation at 37° C. The fluorescence was then measured in the plate reader with Ex=365 nm and Em=440 nm.

[2] = target: T2, wt. GCase (Homo sapiens, UniProt P04062); assay: Saposin C activation assay with 4MU-Glc substrate, wt. enzyme; assay type: biochemical; settings: pH 4.7
T2 construct: purchased Shire Human Genetic Therapies, Inc. Vpriv
T2 sequence (P04062 40-536): T1 sequence (P04062 40-536)
Method: as §1

AC50 [1]: 71 nM
AC50 [2]: 100 nM
B1: Saposin C: a natural co-factor of GCase (protein, UniProt P07602 311-390, looked up)
Saposin-C: SDVYCEVCEFLVKEVTKLIDNNKTEKEILDAFDKMCSKLPKSLSEECQEVVDTYGSSILSILLEEVSPELVCSMLHLCSG
modifications: Saposin-C
notes: a natural co-factor of GCase
